Data published in paper PMC5558740.

Target: CX3CR1 2-21 (UniProt P49238)
Assay: affinity chromatography on CX3CR1 peptide-Sepharose, dot blot
Conditions: reference: Tau42 not phosphorylated; sites S396

CX3CR1 2-21, sequence (P49238 whole entry, looked up, tested part not stated): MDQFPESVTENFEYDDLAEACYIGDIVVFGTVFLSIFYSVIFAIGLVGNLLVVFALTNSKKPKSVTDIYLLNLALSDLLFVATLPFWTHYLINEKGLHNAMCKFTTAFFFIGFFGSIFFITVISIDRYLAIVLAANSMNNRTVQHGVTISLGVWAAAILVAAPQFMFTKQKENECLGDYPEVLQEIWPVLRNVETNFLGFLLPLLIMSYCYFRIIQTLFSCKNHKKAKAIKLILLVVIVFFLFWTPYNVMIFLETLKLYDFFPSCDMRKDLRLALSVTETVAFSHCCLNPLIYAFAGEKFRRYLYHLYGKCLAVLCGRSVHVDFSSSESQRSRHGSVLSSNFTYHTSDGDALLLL

- other: elution fraction number: weaker; reference 4
Substance: Tau (Tau42) (from UniProt P10636-8) Tau42 phosphorylated by GSK-3β
